{"source": "patent US20120064176A1", "about": "“COMPOSITION FOR PREVENTING AND TREATING FATTY LIVER” (National Chung Hsing University, priority 2008, published 2012)", "molecules": {"B1": {"name": "Lactoferrin: NZMP lactoferrin, New Zealand; a glycoprotein that is capable of combining with metal ions (protein, UniProt P24627 20-708, looked up)", "Lactotransferrin": "APRKNVRWCTISQPEWFKCRRWQWRMKKLGAPSITCVRRAFALECIRAIAEKKADAVTLDGGMVFEAGRDPYKLRPVAAEIYGTKESPQTHYYAVAVVKKGSNFQLDQLQGRKSCHTGLGRSAGWIIPMGILRPYLSWTESLEPLQGAVAKFFSASCVPCIDRQAYPNLCQLCKGEGENQCACSSREPYFGYSGAFKCLQDGAGDVAFVKETTVFENLPEKADRDQYELLCLNNSRAPVDAFKECHLAQVPSHAVVARSVDGKEDLIWKLLSKAQEKFGKNKSRSFQLFGSPPGQRDLLFKDSALGFLRIPSKVDSALYLGSRYLTTLKNLRETAEEVKARYTRVVWCAVGPEEQKKCQQWSQQSGQNVTCATASTTDDCIVLVLKGEADALNLDGGYIYTAGKCGLVPVLAENRKSSKHSSLDCVLRPTEGYLAVAVVKKANEGLTWNSLKDKKSCHTAVDRTAGWNIPMGLIVNQTGSCAFDEFFSQSCAPGADPKSRLCALCAGDDQGLDKCVPNSKEKYYGYTGAFRCLAEDVGDVAFVKNDTVWENTNGESTADWAKNLNREDFRLLCLDGTRKPVTEAQSCHLAVAPNHAVVSRSDRAAHVKQVLLHQQALFGKNGKNCPDKFCLFKSETKNLLFNDNTECLAKLGGRPTYEEYLGTEYVTAIANLKKCSTSPLLEACAFLTR"}}, "test_system": "C57BL/6JNarl mice", "assay": "Hepatic triglycerides after 7 weeks of lactoferrin, chromium or lactoferrin+chromium in high-fat-diet mice", "type": "in vivo", "details": "10 mice in each group", "experimental": "Male C57BL/6JNarl mice (n=70) fed with high fat diet (high-fat Rodent TestDiet, PMI International Inc., MO, USA; 67% of calories provided by fat), age 8 weeks, are randomly divided into the control group, the low-dose lactoferrin group (NZMP lactoferrin, New Zealand, 40 mg/kg BW/day), the high-dose lactoferrin group (80 mg/kg BW/day), the low-dose chromium group (CrCl3·6H2O, Sigma, Cr^+3 40 μg/kg BW/day), the high dose chromium group (Cr^+3 80 μg/kg BW/day), the low-dose lactoferrin+chromium group (lactoferrin 40 mg/kg BW/day+Cr^+3 40 μg/kg BW/day), and the high-dose lactoferrin+chromium group (lactoferrin 80 mg/kg BW/day+Cr^+3 80 μg/kg BW/day) (10 mice in each group). After supplementation for 7 weeks, the C57BL/6JNarl mice are sacrificed and their livers are harvested. Then, the level of hepatic triglycerides is analyzed. […] However, no significant difference between the other groups is found."}
{"molecule": "B1", "values": [{"measurement": "Hepatic triglycerides, High-dose", "setting": "High-dose: lactoferrin 80 mg/kg BW/day and/or Cr+3 80 μg/kg BW/day", "result": "18.1 ± 7.2", "unit": "μ mol/g liver"}, {"measurement": "Hepatic triglycerides, Low-dose", "setting": "Low-dose: lactoferrin 40 mg/kg BW/day and/or Cr+3 40 μg/kg BW/day", "result": "18.4 ± 6.0", "unit": "μ mol/g liver"}]}
